Laboratory results published in the supplement of paper PMC11811203.

B1: THAP1; numbered along this chain (parent)
chain: MVQSCSAYGCKNRYDKDKPVSFHKFPLTRPSLCKEWEAAVRRKNFKPTKYSSICSEHFTPDCFKRECNNKLLKENAVPTIFLCTEPHDKKEDLLEPQEQLPPPPLPPPVSQVDAAIGLLMPPLQTPVNLSVFCDHNYTVEDTMHQRKRIHQLEQQVEKLRKKLKTAQQRCRRQERQLEKLKEVVHFQKEKDDVSERGYVILPNDYFEIVEVPA

Variants of: B1
Experiment: THAP1 transcriptional activity (GFP+/GFP- enrichment relative to wild-type constructs) (ratio to WT); higher = more THAP1 activity (PSMB5 reporter activation)
Settings: with PSMB5 promoter-GFP reporter
Description: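 Deep mutational scan of human THAP1. Site-saturation single amino acid variant library (residues 2-213) was expressed by lentivirus at MOI ~0.3 in THAP1-knockout HEK-293T cells carrying an endogenous PSMB5 promoter-GFP knock-in reporter. Five days post-transduction, BFP+ cells were FACS-sorted into GFP dim and GFP bright populations and variants were counted by Illumina sequencing. Activity is the GFP-bright/GFP-dim read fold change, mean of 2 replicates, divided by the mean fold change of wild-type (synonymous) constructs in the same screen pool; WT = 1.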

Variant	THAP1 transcriptional activity
MVQSCSAYGCKNRYDKDKPVSFHKFPLTRPSLCKEWEAAVRRKNFKPTKYSSICSEHFTPDCFKRECNYKLLKENAVPTIFLCTEPHDKKEDLLEPQEQLPPPPLPPPVSQVDAAIGLLMPPLQTPVNLSVFCDHNYTVEDTMHQRKRIHQLEQQVEKLRKKLKTAQQRCRRQERQLEKLKEVVHFQKEKDDVSERGYVILPNDYFEIVEVPA [N69Y]	0.261
MVQSCSAYGCKNRYDKDKPVSFHKFPLTRPSLCKEWEAAVRRKNFKPTKYSSICSEHFTPDCFKRECNTKLLKENAVPTIFLCTEPHDKKEDLLEPQEQLPPPPLPPPVSQVDAAIGLLMPPLQTPVNLSVFCDHNYTVEDTMHQRKRIHQLEQQVEKLRKKLKTAQQRCRRQERQLEKLKEVVHFQKEKDDVSERGYVILPNDYFEIVEVPA [N69T]	0.226
MVQSCSAYGCKNRYDKDKPVSFHKFPLTRPSLCKEWEAAVRRKNFKPTKYSSICSEHFTPDCFKRECNWKLLKENAVPTIFLCTEPHDKKEDLLEPQEQLPPPPLPPPVSQVDAAIGLLMPPLQTPVNLSVFCDHNYTVEDTMHQRKRIHQLEQQVEKLRKKLKTAQQRCRRQERQLEKLKEVVHFQKEKDDVSERGYVILPNDYFEIVEVPA [N69W]	0.0798
MVQSCSAYGCKNRYDKDKPVSFHKFPLTRPSLCKEWEAAVRRKNFKPTKYSSICSEHFTPDCFKRECNSKLLKENAVPTIFLCTEPHDKKEDLLEPQEQLPPPPLPPPVSQVDAAIGLLMPPLQTPVNLSVFCDHNYTVEDTMHQRKRIHQLEQQVEKLRKKLKTAQQRCRRQERQLEKLKEVVHFQKEKDDVSERGYVILPNDYFEIVEVPA [N69S]	0.193
MVQSCSAYGCKNRYDKDKPVSFHKFPLTRPSLCKEWEAAVRRKNFKPTKYSSICSEHFTPDCFKRECNQKLLKENAVPTIFLCTEPHDKKEDLLEPQEQLPPPPLPPPVSQVDAAIGLLMPPLQTPVNLSVFCDHNYTVEDTMHQRKRIHQLEQQVEKLRKKLKTAQQRCRRQERQLEKLKEVVHFQKEKDDVSERGYVILPNDYFEIVEVPA [N69Q]	0.143
MVQSCSAYGCKNRYDKDKPVSFHKFPLTRPSLCKEWEAAVRRKNFKPTKYSSICSEHFTPDCFKRECNRKLLKENAVPTIFLCTEPHDKKEDLLEPQEQLPPPPLPPPVSQVDAAIGLLMPPLQTPVNLSVFCDHNYTVEDTMHQRKRIHQLEQQVEKLRKKLKTAQQRCRRQERQLEKLKEVVHFQKEKDDVSERGYVILPNDYFEIVEVPA [N69R]	0.216
MVQSCSAYGCKNRYDKDKPVSFHKFPLTRPSLCKEWEAAVRRKNFKPTKYSSICSEHFTPDCFKRECNPKLLKENAVPTIFLCTEPHDKKEDLLEPQEQLPPPPLPPPVSQVDAAIGLLMPPLQTPVNLSVFCDHNYTVEDTMHQRKRIHQLEQQVEKLRKKLKTAQQRCRRQERQLEKLKEVVHFQKEKDDVSERGYVILPNDYFEIVEVPA [N69P]	0.092
MVQSCSAYGCKNRYDKDKPVSFHKFPLTRPSLCKEWEAAVRRKNFKPTKYSSICSEHFTPDCFKRECNVKLLKENAVPTIFLCTEPHDKKEDLLEPQEQLPPPPLPPPVSQVDAAIGLLMPPLQTPVNLSVFCDHNYTVEDTMHQRKRIHQLEQQVEKLRKKLKTAQQRCRRQERQLEKLKEVVHFQKEKDDVSERGYVILPNDYFEIVEVPA [N69V]	0.399
MVQSCSAYGCKNRYDKDKPVSFHKFPLTRPSLCKEWEAAVRRKNFKPTKYSSICSEHFTPDCFKRECNMKLLKENAVPTIFLCTEPHDKKEDLLEPQEQLPPPPLPPPVSQVDAAIGLLMPPLQTPVNLSVFCDHNYTVEDTMHQRKRIHQLEQQVEKLRKKLKTAQQRCRRQERQLEKLKEVVHFQKEKDDVSERGYVILPNDYFEIVEVPA [N69M]	0.597
MVQSCSAYGCKNRYDKDKPVSFHKFPLTRPSLCKEWEAAVRRKNFKPTKYSSICSEHFTPDCFKRECNNCLLKENAVPTIFLCTEPHDKKEDLLEPQEQLPPPPLPPPVSQVDAAIGLLMPPLQTPVNLSVFCDHNYTVEDTMHQRKRIHQLEQQVEKLRKKLKTAQQRCRRQERQLEKLKEVVHFQKEKDDVSERGYVILPNDYFEIVEVPA [K70C]	0.313
MVQSCSAYGCKNRYDKDKPVSFHKFPLTRPSLCKEWEAAVRRKNFKPTKYSSICSEHFTPDCFKRECNNSLLKENAVPTIFLCTEPHDKKEDLLEPQEQLPPPPLPPPVSQVDAAIGLLMPPLQTPVNLSVFCDHNYTVEDTMHQRKRIHQLEQQVEKLRKKLKTAQQRCRRQERQLEKLKEVVHFQKEKDDVSERGYVILPNDYFEIVEVPA [K70S]	0.325
MVQSCSAYGCKNRYDKDKPVSFHKFPLTRPSLCKEWEAAVRRKNFKPTKYSSICSEHFTPDCFKRECNNPLLKENAVPTIFLCTEPHDKKEDLLEPQEQLPPPPLPPPVSQVDAAIGLLMPPLQTPVNLSVFCDHNYTVEDTMHQRKRIHQLEQQVEKLRKKLKTAQQRCRRQERQLEKLKEVVHFQKEKDDVSERGYVILPNDYFEIVEVPA [K70P]	0.178
MVQSCSAYGCKNRYDKDKPVSFHKFPLTRPSLCKEWEAAVRRKNFKPTKYSSICSEHFTPDCFKRECNNILLKENAVPTIFLCTEPHDKKEDLLEPQEQLPPPPLPPPVSQVDAAIGLLMPPLQTPVNLSVFCDHNYTVEDTMHQRKRIHQLEQQVEKLRKKLKTAQQRCRRQERQLEKLKEVVHFQKEKDDVSERGYVILPNDYFEIVEVPA [K70I]	0.33
MVQSCSAYGCKNRYDKDKPVSFHKFPLTRPSLCKEWEAAVRRKNFKPTKYSSICSEHFTPDCFKRECNNRLLKENAVPTIFLCTEPHDKKEDLLEPQEQLPPPPLPPPVSQVDAAIGLLMPPLQTPVNLSVFCDHNYTVEDTMHQRKRIHQLEQQVEKLRKKLKTAQQRCRRQERQLEKLKEVVHFQKEKDDVSERGYVILPNDYFEIVEVPA [K70R]	2.14
MVQSCSAYGCKNRYDKDKPVSFHKFPLTRPSLCKEWEAAVRRKNFKPTKYSSICSEHFTPDCFKRECNNNLLKENAVPTIFLCTEPHDKKEDLLEPQEQLPPPPLPPPVSQVDAAIGLLMPPLQTPVNLSVFCDHNYTVEDTMHQRKRIHQLEQQVEKLRKKLKTAQQRCRRQERQLEKLKEVVHFQKEKDDVSERGYVILPNDYFEIVEVPA [K70N]	0.476
MVQSCSAYGCKNRYDKDKPVSFHKFPLTRPSLCKEWEAAVRRKNFKPTKYSSICSEHFTPDCFKRECNNDLLKENAVPTIFLCTEPHDKKEDLLEPQEQLPPPPLPPPVSQVDAAIGLLMPPLQTPVNLSVFCDHNYTVEDTMHQRKRIHQLEQQVEKLRKKLKTAQQRCRRQERQLEKLKEVVHFQKEKDDVSERGYVILPNDYFEIVEVPA [K70D]	0.0985
MVQSCSAYGCKNRYDKDKPVSFHKFPLTRPSLCKEWEAAVRRKNFKPTKYSSICSEHFTPDCFKRECNNELLKENAVPTIFLCTEPHDKKEDLLEPQEQLPPPPLPPPVSQVDAAIGLLMPPLQTPVNLSVFCDHNYTVEDTMHQRKRIHQLEQQVEKLRKKLKTAQQRCRRQERQLEKLKEVVHFQKEKDDVSERGYVILPNDYFEIVEVPA [K70E]	0.134
MVQSCSAYGCKNRYDKDKPVSFHKFPLTRPSLCKEWEAAVRRKNFKPTKYSSICSEHFTPDCFKRECNNGLLKENAVPTIFLCTEPHDKKEDLLEPQEQLPPPPLPPPVSQVDAAIGLLMPPLQTPVNLSVFCDHNYTVEDTMHQRKRIHQLEQQVEKLRKKLKTAQQRCRRQERQLEKLKEVVHFQKEKDDVSERGYVILPNDYFEIVEVPA [K70G]	0.0856
MVQSCSAYGCKNRYDKDKPVSFHKFPLTRPSLCKEWEAAVRRKNFKPTKYSSICSEHFTPDCFKRECNNMLLKENAVPTIFLCTEPHDKKEDLLEPQEQLPPPPLPPPVSQVDAAIGLLMPPLQTPVNLSVFCDHNYTVEDTMHQRKRIHQLEQQVEKLRKKLKTAQQRCRRQERQLEKLKEVVHFQKEKDDVSERGYVILPNDYFEIVEVPA [K70M]	0.175
MVQSCSAYGCKNRYDKDKPVSFHKFPLTRPSLCKEWEAAVRRKNFKPTKYSSICSEHFTPDCFKRECNNWLLKENAVPTIFLCTEPHDKKEDLLEPQEQLPPPPLPPPVSQVDAAIGLLMPPLQTPVNLSVFCDHNYTVEDTMHQRKRIHQLEQQVEKLRKKLKTAQQRCRRQERQLEKLKEVVHFQKEKDDVSERGYVILPNDYFEIVEVPA [K70W]	0.129
MVQSCSAYGCKNRYDKDKPVSFHKFPLTRPSLCKEWEAAVRRKNFKPTKYSSICSEHFTPDCFKRECNNFLLKENAVPTIFLCTEPHDKKEDLLEPQEQLPPPPLPPPVSQVDAAIGLLMPPLQTPVNLSVFCDHNYTVEDTMHQRKRIHQLEQQVEKLRKKLKTAQQRCRRQERQLEKLKEVVHFQKEKDDVSERGYVILPNDYFEIVEVPA [K70F]	0.163
MVQSCSAYGCKNRYDKDKPVSFHKFPLTRPSLCKEWEAAVRRKNFKPTKYSSICSEHFTPDCFKRECNNQLLKENAVPTIFLCTEPHDKKEDLLEPQEQLPPPPLPPPVSQVDAAIGLLMPPLQTPVNLSVFCDHNYTVEDTMHQRKRIHQLEQQVEKLRKKLKTAQQRCRRQERQLEKLKEVVHFQKEKDDVSERGYVILPNDYFEIVEVPA [K70Q]	0.437
MVQSCSAYGCKNRYDKDKPVSFHKFPLTRPSLCKEWEAAVRRKNFKPTKYSSICSEHFTPDCFKRECNNALLKENAVPTIFLCTEPHDKKEDLLEPQEQLPPPPLPPPVSQVDAAIGLLMPPLQTPVNLSVFCDHNYTVEDTMHQRKRIHQLEQQVEKLRKKLKTAQQRCRRQERQLEKLKEVVHFQKEKDDVSERGYVILPNDYFEIVEVPA [K70A]	0.434
MVQSCSAYGCKNRYDKDKPVSFHKFPLTRPSLCKEWEAAVRRKNFKPTKYSSICSEHFTPDCFKRECNNVLLKENAVPTIFLCTEPHDKKEDLLEPQEQLPPPPLPPPVSQVDAAIGLLMPPLQTPVNLSVFCDHNYTVEDTMHQRKRIHQLEQQVEKLRKKLKTAQQRCRRQERQLEKLKEVVHFQKEKDDVSERGYVILPNDYFEIVEVPA [K70V]	0.479
MVQSCSAYGCKNRYDKDKPVSFHKFPLTRPSLCKEWEAAVRRKNFKPTKYSSICSEHFTPDCFKRECNNYLLKENAVPTIFLCTEPHDKKEDLLEPQEQLPPPPLPPPVSQVDAAIGLLMPPLQTPVNLSVFCDHNYTVEDTMHQRKRIHQLEQQVEKLRKKLKTAQQRCRRQERQLEKLKEVVHFQKEKDDVSERGYVILPNDYFEIVEVPA [K70Y]	0.12
MVQSCSAYGCKNRYDKDKPVSFHKFPLTRPSLCKEWEAAVRRKNFKPTKYSSICSEHFTPDCFKRECNNHLLKENAVPTIFLCTEPHDKKEDLLEPQEQLPPPPLPPPVSQVDAAIGLLMPPLQTPVNLSVFCDHNYTVEDTMHQRKRIHQLEQQVEKLRKKLKTAQQRCRRQERQLEKLKEVVHFQKEKDDVSERGYVILPNDYFEIVEVPA [K70H]	0.709
MVQSCSAYGCKNRYDKDKPVSFHKFPLTRPSLCKEWEAAVRRKNFKPTKYSSICSEHFTPDCFKRECNNTLLKENAVPTIFLCTEPHDKKEDLLEPQEQLPPPPLPPPVSQVDAAIGLLMPPLQTPVNLSVFCDHNYTVEDTMHQRKRIHQLEQQVEKLRKKLKTAQQRCRRQERQLEKLKEVVHFQKEKDDVSERGYVILPNDYFEIVEVPA [K70T]	0.397
MVQSCSAYGCKNRYDKDKPVSFHKFPLTRPSLCKEWEAAVRRKNFKPTKYSSICSEHFTPDCFKRECNNLLLKENAVPTIFLCTEPHDKKEDLLEPQEQLPPPPLPPPVSQVDAAIGLLMPPLQTPVNLSVFCDHNYTVEDTMHQRKRIHQLEQQVEKLRKKLKTAQQRCRRQERQLEKLKEVVHFQKEKDDVSERGYVILPNDYFEIVEVPA [K70L]	0.121
